Source: article PMC4125281, “Capsid Protein VP4 of Human Rhinovirus Induces Membrane Permeability by the Formation of a Size-Selective Multimeric Pore” (PLoS Pathogens, 2014)
*: point of attachment. Myristoyl = CCCCCCCCCCCCCC(=O)*

What was measured:
[1] = molecular target: the molecule itself; assay: SDS-PAGE without cross-linking (multimers that survive SDS); VP4His incubated with liposomes, no DSP (Fig. 5B lane 5); non-reducing SDS-PAGE, western blot with antisera to VP4
[2] = molecular target: the molecule itself; assay: cross-linking; VP4His incubated with liposomes (50 uM lipid) at 25 C for 1 hr, DSP 0.5 mM or 1 mM for 20 min at 25 C; non-reducing SDS-PAGE, western blot with antisera to VP4; cross-linking reversed with 50 mM DTT in some samples

B1: recombinant myristoylated human rhinovirus 16 VP4 with six histidines at the C-terminus (VP4His) (natural protein)
chain: Myristoyl-MGAQVSRQNVGTHSTQNMVSNGSSLNYFNINYFKDAASSGASRLDFSQDPSKFTDPVKDVLEKGIPTLQ-{H2N-H2N-H2N-H2N-H2N-H2N}
notes: capsid protein VP4 of human rhinovirus 16 (HRV16), the cut product VP4 of the genome polyprotein; native VP4 about 7.4 kDa, VP4His about 8.2 kDa; Plasmid pETVP4His (pET23d); also called recombinant VP4; not shown: His6, C-terminal, kept
Question: Which results are given for B1?
Answer: stoichiometry N [1]: 2; stoichiometry N [2]: 6
